From patent publication US20060052296A1 (TEMPLE UNIVERSITY OF THE COMMONWEALTH SYSTEM OF HIGHER …, published 2006)

Experiments:
GST alone [1] = target: T1, GST alone (UniProt P08515 1-218 = GST); test: GST pull-down from NIH 3T3 cell extract, Western blot with anti-agnoprotein antibody
[2] = target: p53 in NIH 3T3 cell protein extract (mouse (endogenous in mouse fibroblast …, UniProt P02340 1-390)); test: co-immunoprecipitation with anti-p53 antibody pAb 421, Western blot with rabbit anti-Agno
GST alone [3] = target: T1, GST alone; test: GST pull-down, autoradiography

T1 sequence (P08515 whole entry): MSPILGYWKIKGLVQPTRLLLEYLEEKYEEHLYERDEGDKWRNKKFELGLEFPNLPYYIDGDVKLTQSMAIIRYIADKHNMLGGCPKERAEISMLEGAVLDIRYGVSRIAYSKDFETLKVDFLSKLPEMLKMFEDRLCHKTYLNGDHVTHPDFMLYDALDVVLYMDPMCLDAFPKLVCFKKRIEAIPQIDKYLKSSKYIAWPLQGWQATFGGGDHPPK
p53 in NIH 3T3 cell protein extract (mouse, sequence (P02340 whole entry): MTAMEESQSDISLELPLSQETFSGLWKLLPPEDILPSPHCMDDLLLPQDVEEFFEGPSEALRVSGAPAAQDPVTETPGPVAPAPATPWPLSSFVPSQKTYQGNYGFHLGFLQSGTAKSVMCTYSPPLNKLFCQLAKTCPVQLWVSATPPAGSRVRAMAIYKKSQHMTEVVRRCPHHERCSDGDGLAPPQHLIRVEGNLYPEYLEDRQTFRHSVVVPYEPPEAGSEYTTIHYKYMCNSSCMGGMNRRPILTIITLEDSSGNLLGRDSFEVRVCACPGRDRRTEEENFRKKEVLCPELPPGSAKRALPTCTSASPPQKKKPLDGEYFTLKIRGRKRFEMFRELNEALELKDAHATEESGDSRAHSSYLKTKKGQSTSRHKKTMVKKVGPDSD

B1: YFP-agnoprotein (other)
chain: MVLRQLSRKASVKVSKTWSGTKKRAQRILIFLLEFLLDFCTGEDSVDGKKRQRHSGLTEQTYSALPEPKAT
notes: also called GFP-Agnoprotein; fusion agnoprotein
binding result (GST alone [1]): no binding
binding result [2]: binds

B2: in vitro synthesized [35S]-labeled agnoprotein (other)
chain: MVLRQLSRKASVKVSKTWSGTKKRAQRILIFLLEFLLDFCTGEDSVDGKKRQRHSGLTEQTYSALPEPKAT
notes: also called in vitro translated [35S]-labeled agnoprotein
binding result (GST alone [3]): no binding
